Among the data in article doi:10.1101/2021.09.29.462438 are stoichiometry N values, retold here.

This experiment concerns the target N-terminal soluble domain of Bacteroides fragilis FeoAB fusion protein (BfNFeoAB) (Bacteroides fragilis). Briefly: SEC. (SEC sorts molecules by how far they enter the pores of the column.)

With “N-terminal soluble domain of Bacteroides fragilis FeoAB fusion protein (BfNFeoAB) (domain or fragment)”, the stoichiometry N (in general, a count of units in the complex or per binding partner) is 3.
